The series has as its target Ferritin-H (ferritin heavy chain) (Homo sapiens) (UniProt P02794). The experiment in a line: cell_activity. The settings on record: CV-1 cells, EKLF-stimulated beta-CAT reporter.

Ferritin-H (ferritin heavy chain) (Homo sapiens), sequence (P02794 2-183): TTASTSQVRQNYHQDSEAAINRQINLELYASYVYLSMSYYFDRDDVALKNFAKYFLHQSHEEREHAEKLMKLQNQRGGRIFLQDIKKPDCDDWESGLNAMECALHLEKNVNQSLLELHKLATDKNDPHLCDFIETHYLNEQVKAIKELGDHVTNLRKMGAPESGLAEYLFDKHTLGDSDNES

Regarding beta-globin 5' region -610/+20 (630 bp), the activity was determined as 62 % repression.
